Test results from EP2045266A1 (INSERM (Institut National de la Santé et de la Recherche …, dated 2009).

Target: T1, LexA DNA-binding domain fusion of 4 kDa pro-fragment of human cath-D (human, UniProt P0A7C2 1-202; P07339 21-64, limits assumed)
T1 construct: also called 4 kDa pro-fragment (yeast two-hybrid bait)
T1 sequence (looked up): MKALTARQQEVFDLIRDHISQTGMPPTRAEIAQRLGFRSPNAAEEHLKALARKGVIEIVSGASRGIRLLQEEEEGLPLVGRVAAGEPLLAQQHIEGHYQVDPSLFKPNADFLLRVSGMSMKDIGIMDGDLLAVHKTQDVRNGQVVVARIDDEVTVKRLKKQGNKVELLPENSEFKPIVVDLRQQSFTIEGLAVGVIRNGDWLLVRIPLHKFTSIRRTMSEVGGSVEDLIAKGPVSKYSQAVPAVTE
Assay: yeast two-hybrid

B1: B42 activation domain fusion of LRP1β (307-479) (yeast two-hybrid clone, pYESTrp2-LRP1β (307-479)) (other, not shown: large carriers)
chain: PSGMPTCRCPTGFTGPKCTQQVCAGYCANNSTCTVNQGNQPQCRCLPGFLGDRCQYRQCSGYCENFGTCQMAADGSRQCRCTAYFEGSRCEVNKCSRCLEGACVVNKQSGDVTCNCTDGRVAPSCLTCVGHCSNGGSCTMNSKMMPECQCPPHMTGPRCEEHVFSQQQPGHIA
notes: also called the clone isolated in the screen
binding result: no binding
